# Data taken from US20190049463A1 (VIB VZW, published 2019).
# Key:
# [1] = molecular target: β2AR truncated after amino acid 365 (β2AR-365), native (human) (UniProt P07550); experiment: cell-based or functional assay
# [2] = molecular target: T1, β2AR truncated after amino acid 365 (β2AR-365), native (human, UniProt P07550 1-365); experiment: listed as β2AR-specific; phage selection and ELISA on reconstituted β2AR-365
# T1 construct: Expressed in Sf9 insect cells; Used detergent-solubilized, in phospholipid vesicles, in Sf9 membranes or in HDL particles; In the bimane assays it carried monobromobimane on Cys265; also called WT β2AR
# Method: In a first screen we compared the binding of the nanobodies on the native and heat denatured β₂AR antigen in an ELISA. […] Next, this plate was incubated at 80° C. for two hours.
# A single llama received six weekly administrations of the reconstituted truncated β₂AR. Lymphocytes were isolated from the blood of the immunized llama and total RNA was prepared from these cells. […] Antigen-bound phages were recovered from antigen-coated wells either with thriethylamine pH11 and neutralized with Tris-HCl pH7 or by the addition of freshly grown TG1 E. coli cells. After two rounds of bio-panning, 96 individual colonies were randomly picked and the nanobodies produced as a soluble HIS-tagged protein in the periplasm of the TG1 cells.
# [3] = molecular target: T1, β2AR truncated after amino acid 365 …; experiment: cell-based or functional assay
# [4] = molecular target: β2AR-T4L fusion protein (third intracellular loop replaced by T4 lysozyme, truncated at position 365) (human) (UniProt P07550); experiment: cell-based or functional assay
Molecule,binding result [2],other results
Gs heterotrimer,,"Ki of (-)-isoproterenol, high affinity state, β2AR/HDL reconstituted with Gs [1]: 1.07 nM; Ki of (-)-isoproterenol, low affinity state, β2AR/HDL reconstituted with Gs [1]: 95.3 nM; Ki of (-)-isoproterenol, low affinity state, β2AR/HDL reconstituted with Gs in the presence of 10 µM GTPγS [1]: 95.2 nM; fold increase of the affinity of isoproterenol for β2AR/HDL [1]: 100 fold"
"Nanobody CA3422 (VHH, also called NB22) VHH: QVQLQESGGGLVQAGGSLRLSCAASGSIFSINAMGWYRQAPGKQRELVAASTSGDITNYADSVKGRFTISRDNAKNTVYLQMNSLEPEDTGVYYCNARGIYSDYAFADFNSWGQGTQVTVSS",binds,
"Nanobody CA2784 (VHH, also called NB84 (short notation shared with CA3484)) VHH: QVQLQESGGGLVQAGGSLRLSCAASGSIFSINAMGWYRQAPGKQRELVAAITSGGSTTYADSVKGRFTVSRDNAKNTVYLQMIRLKPEDTAVYYCHVRDIYSDFLGQYEYDYWGQGTQVTVSS",binds,
"Nanobody 67, reference number CA2767 (VHH) VHH: QVQLQESGGGLVQAGGSLRLSCAASGTISSFIAMGWYRQSPGKQRELVAGITSGGETNYEDSVKGRFTISRDNAKNTLYLQMNTLKPEDTAVYYCNAQVFADIFNLINYWGQGTQVTVSS",,"Ki of (-)-isoproterenol for β2AR, [3H]-DHA competition on Sf9 membranes with 1 µM nanobody (295 without nanobody) [3]: 19.4 nM"
"Nanobody-80 (Nb80), reference number CA2780 (VHH, not shown: small tags and cut ends) VHH: QVQLQESGGGLVQAGGSLRLSCAASGSIFSINTMGWYRQAPGKQRELVAAIHSGGSTNYANSVKGRFTISRDNAANTVYLQMNSLKPEDTAVYYCNVKDYGAVLYEYDYWGQGTQVTVSS",,"Ki of (-)-isoproterenol, high affinity state, β2AR-T4L/HDL with 1 µM Nb80 (33.5 without) [4]: 0.56 nM; fold increase of the affinity of isoproterenol for β2AR-T4L/HDL [4]: 60 fold"
"Nanobody 65, reference number CA2765 (VHH) VHH: QVQLQESGGGLVQAGGSLRLSCAASGSIFSINTMGWYRQAPGKQRELVAAIHSGGSTNYADSVRGRFTISRDNAKNTVYLQMNSLKPEDTAVYYCNVKDYGAVLYEYDYWGQGTQVTVSS",,"Ki of (-)-isoproterenol for β2AR, [3H]-DHA competition on Sf9 membranes with 1 µM nanobody (295 without nanobody) [3]: 13.8 nM"
"Nanobody CA3413 (VHH, also called NB13) VHH: QVQLQESGGGLVQAGGSLRLSCAASGSIFSINTMGWYRQAPGKRRELVAAIHSGGSTNYANSVKGRFTISRDNAANTVYLQMNSLKPEDTAVYYCNVKDYGAVLYEYDYWGQGTQVTVSS",binds,
"Nanobody CA2764 (VHH, also called NB64) VHH: QVQLQESGGGLVQAGGSLRLSCAASGSIFSINTMGWYRQAPGKQRELVAAIHSGGSTNYADSVKGRFTISRDNAKNTVYLQMNSLKPEDTAVYYCNVKDYGAVLYEYDYWGQGTQVTVSS",binds,
"Nanobody CA3431 (VHH, also called NB31) VHH: QVQLQESGGGLVQPGGSLRLSCAASGSIFSINTMGWYRQAPGKQRELVAAIHSGGSTNYANSVKGRFTISRDNAANTVYLQMNSLKPEDTAVYYCNVKDYGAVLYEYDYWGQGTQVTVSS",binds,
"Nanobody CA3424 (VHH, also called NB24) VHH: QVQLQESGGGLVQAGGSLRLSCAASGSVFSLPTAGWYRQAPGKQRELVALITGSGSTHYADSVKGRFAISREYSKKTMDLQMNSLHREDTAVYFCYYRSTFTEYWGQGTQVTVSS",binds,
"Nanobody CA3477 (VHH, also called NB77) VHH: QVQLQESGGGLVQAGGSLRLSCAASGSIFSLNDMGWYRQAPGKQRELVAAITSGGSTNYADSVKGRFTISRDNAKNTVYLQMNSLKPEDTAVYYCNAKVAGTFSIYDYWGQGTQVTVSS",binds,
"Nanobody CA3420 (VHH, also called NB20) VHH: QVQLQESGGGLVQAGGSLRLSCAASGSIFSLNDMGWYRQAPGKQRDLVAAITSGGSTKYADSVKGRFTVSRDNAKNTVYLQMNSLKPEDTAVYYCNAKVAGTFSIYDYWGQGTQVTVSS",binds,
"Nanobody CA3472 (VHH, also called NB72 (short notation shared with CA2772)) VHH: QVQLQESGGGLVQPGGSLRLSCAASGSIFSLNDMGWYRQAPGKQRELVAAISSGGRLNYADSVKGRFTISRDNAKNTVYLQMNSLKPEDTAVYYCNAVVAGTFSTYDYWGQGTQVTVSS",binds,
"Nanobody CA3433 (VHH, also called NB33) VHH: QVQLQESGGGLVQAGGSLRLSCAASGSIFSLNDMGWYRQAPGKLRELVAAVTSGGSTNYADSVKGRFTISRDNAKNTVYLQMNSLKPEDTAVYYCNAKVAGTFSIYDYWGQGTQVTVSS",binds,
"Nanobody CA3484 (VHH, also called NB84 (short notation shared with CA2784)) VHH: QVQLQESGGGLVQAGGSLRLSCAASGSIFSLNDMGWYRQAPGKLRELVAAITSGGSTKYADPVKGRFTISRDNAKNTVYLQMNSLKAEDTAVYYCNAKVAGTFSIYDYWGQGTQVTVSS",binds,
"Nanobody CA3475 (VHH, also called NB75) VHH: QVQLQESGGGLVQAGGPLRLSCAASGSIFSLNDMGWYRQAPGKQRELVAAITSGGSTNYADSVKGRFTISRDNAKNTVYLQMNSLKPEDTAVYYCNAVVAGTFSTYDYWGQGTQVTVSS",binds,
"Nanobody 71, reference number CA2771 (VHH) VHH: QVQLQESGGGLVQPGGSLRLSCAASGFAFSSYELRWYRQAPGKQHELVAGITTGGNTYYADSVKGRFTISRDNAKNTVYLQMSNLRPEDTAVYACNANWDLLSDYWGQGTQVTVSS",,"Ki of (-)-isoproterenol for β2AR, [3H]-DHA competition on Sf9 membranes with 1 µM nanobody (295 without nanobody) [3]: 10.6 nM"
